Measurements: article PMC2120550

Molecular target: lysin from the pink abalone (H. corrugata) (Haliotis corrugata (pink abalone))
Assay: cross-linking

lysin from the pink abalone (H. corrugata) (natural protein), sequence (P19448 19-155 limits assumed): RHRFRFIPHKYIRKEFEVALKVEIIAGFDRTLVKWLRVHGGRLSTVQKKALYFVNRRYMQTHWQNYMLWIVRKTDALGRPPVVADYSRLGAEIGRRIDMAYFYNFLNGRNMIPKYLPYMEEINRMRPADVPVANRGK

Question: Which stoichiometry N does the source give for “lysin from the pink abalone (H. corrugata) (natural protein)” here?
Answer: The stoichiometry N was 2.
